Test results taken from paper PMC2787996 (Biochemical and biophysical research communications, 2009).

Target: T1, dDis3-FLAG (Drosophila melanogaster, UniProt Q9VC93 1-982)
T1 sequence (looked up): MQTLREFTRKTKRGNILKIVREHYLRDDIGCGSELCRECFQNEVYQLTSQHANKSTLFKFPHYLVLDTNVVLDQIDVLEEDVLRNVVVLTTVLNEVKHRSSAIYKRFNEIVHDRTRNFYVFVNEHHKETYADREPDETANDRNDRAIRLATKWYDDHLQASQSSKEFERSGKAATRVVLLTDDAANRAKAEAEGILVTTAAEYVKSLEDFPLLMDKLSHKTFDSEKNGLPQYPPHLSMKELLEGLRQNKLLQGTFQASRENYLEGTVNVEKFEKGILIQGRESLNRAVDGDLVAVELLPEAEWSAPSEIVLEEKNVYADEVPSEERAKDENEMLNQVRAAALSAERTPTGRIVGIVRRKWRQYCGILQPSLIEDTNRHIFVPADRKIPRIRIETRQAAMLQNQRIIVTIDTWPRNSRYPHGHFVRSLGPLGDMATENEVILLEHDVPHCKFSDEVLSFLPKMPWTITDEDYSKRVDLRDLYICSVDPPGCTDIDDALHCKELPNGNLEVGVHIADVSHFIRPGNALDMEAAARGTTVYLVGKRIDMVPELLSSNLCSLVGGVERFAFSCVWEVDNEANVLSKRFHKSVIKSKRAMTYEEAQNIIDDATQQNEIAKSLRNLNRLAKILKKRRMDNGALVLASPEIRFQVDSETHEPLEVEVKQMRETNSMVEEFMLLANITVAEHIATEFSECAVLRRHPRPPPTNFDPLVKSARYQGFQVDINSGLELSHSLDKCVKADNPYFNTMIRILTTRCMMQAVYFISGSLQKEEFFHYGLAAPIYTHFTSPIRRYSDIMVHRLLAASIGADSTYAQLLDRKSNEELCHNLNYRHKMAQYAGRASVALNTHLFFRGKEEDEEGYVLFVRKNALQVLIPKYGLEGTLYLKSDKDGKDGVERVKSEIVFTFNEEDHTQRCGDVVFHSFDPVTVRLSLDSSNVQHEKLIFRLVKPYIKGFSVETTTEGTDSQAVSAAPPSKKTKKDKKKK
Assay: co-IP

B1: dRrp6 (natural protein, UniProt Q9VFF3 1-900, looked up)
chain: MPRTPKRVHQEAKEESAQADQPPKKSASEDVEAFTNKGFKNAIAATKAANAFPQGTARALYLSYPGYARVMEDLTQRVVALIGNVLHSKDIKGDIKKRQPEEQFEMVQECNDVLFERITTNLDIKGGLRRNTQQVVEAQVDVMSSSTSIEPAVASPQTQGTPKAGSWNRTTGTPQRSMVSARLFTAKNIVRPQTQFREPVDNSAQNPFVPRLKEKPNSLKPLALLPEYDDAGNVQSYLHPYEFELLKFQPPEEQFQKQKPVLPALMAETELMVVDTVEKLKQALEELRQAPQIAIDVEHHSYRTFMGITCLVQMSTRSKDYIFDTLILRDDMHILNLVLTDPKKLKILHGADLDIEWLQRDLSLYIVNMFDTHRAAKALNMARLSLAYLLKHYLDLDVDKSLQLADWRMRPLPQQLVDYARQDTHFLIYVYGRMTNDLLQQHAEPGLLGSVYQQSTDVCKKRYNKPHIGPESHLDLVRKTKRSFDNRQLYALRGIFEWRDATARSEDESYGYVLPNHMMLQIAESLPREMQGILACCNPIPPLVRQQLHTLHQIVLKARDQPLVKPILEAHSSTQAALPPSTKDFSSKLYCPHDFSQLEEIRDDLPTLLKRNSTTGKLEVPNKEEVAKVDPTLAAPAMALFEKQSKPTQEEEQRWAHLRKESQTMRMPYKRYLAILPLMVQLKADQLARERSELQKRQLCPAAPTVEQNIKLEAHAIGKEDDDMYSVPLKEQLKRKHPQANVKTDPEQQPTASKRPRKDENSQTKPPVKIEPVEKVQQALGESDDEVVEVPIERQATEPPKPSPAQNNRKQKKNQFQRGFKAKNRGNHPQSSSQQVPQHKGTGNFDYKNVDFRQFKGGAQRARGTEIKQQIRGKNRPNNRNNKQFNKLFTFSNVRKEGKK
**Q.** With B1 as the binder, how does the “fold reduction in recovery (0.2 M Mg2+ against 0.01 M Mg2+)” value read?
**A.** ~2 fold
